From IntAct's records for PubMed 25416944

The substances below were run against vhl_human VHL (UniProt P40337).
Chain of vhl_human VHL (P40337 whole entry, looked up): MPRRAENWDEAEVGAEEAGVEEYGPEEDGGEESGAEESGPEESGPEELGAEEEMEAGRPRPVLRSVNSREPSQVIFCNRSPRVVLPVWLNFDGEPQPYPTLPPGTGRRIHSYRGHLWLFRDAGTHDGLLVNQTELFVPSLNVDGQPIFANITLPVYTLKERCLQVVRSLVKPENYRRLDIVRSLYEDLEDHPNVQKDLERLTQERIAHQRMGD

Chain of T-complex protein 1 subunit alpha (Saccharomyces cerevisiae), P12612 R319A (P12612 whole entry R319A, one chain of several): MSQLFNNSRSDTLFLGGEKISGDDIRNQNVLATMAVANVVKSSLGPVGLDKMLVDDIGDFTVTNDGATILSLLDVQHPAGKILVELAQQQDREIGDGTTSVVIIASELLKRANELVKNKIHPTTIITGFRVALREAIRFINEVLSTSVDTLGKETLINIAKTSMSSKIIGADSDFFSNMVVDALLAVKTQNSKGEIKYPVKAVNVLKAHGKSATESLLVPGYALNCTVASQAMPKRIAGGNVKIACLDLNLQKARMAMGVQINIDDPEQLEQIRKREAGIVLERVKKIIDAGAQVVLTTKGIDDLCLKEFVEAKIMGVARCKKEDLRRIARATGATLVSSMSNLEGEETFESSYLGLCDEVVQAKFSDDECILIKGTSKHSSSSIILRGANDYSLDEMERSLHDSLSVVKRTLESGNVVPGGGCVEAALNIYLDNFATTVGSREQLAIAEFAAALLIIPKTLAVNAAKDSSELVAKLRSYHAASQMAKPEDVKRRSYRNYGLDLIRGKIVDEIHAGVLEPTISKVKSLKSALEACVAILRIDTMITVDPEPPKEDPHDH
Chain of T-complex protein 1 subunit alpha (Saccharomyces cerevisiae), P12612 L305A (P12612 whole entry L305A, one chain of several): as the sequence (P12612 whole entry R319A, one chain of several) above, with L305A, A319R counted along it
Chain of T-complex protein 1 subunit alpha (Saccharomyces cerevisiae), P12612 V311A (P12612 whole entry V311A, one chain of several): as the sequence (P12612 whole entry R319A, one chain of several) above, with V311A, A319R counted along it
Chain of T-complex protein 1 subunit alpha (Saccharomyces cerevisiae), P12612 L326A (P12612 whole entry L326A, one chain of several): as the sequence (P12612 whole entry R319A, one chain of several) above, with A319R, L326A counted along it

effect of a mutation on the interaction | Substance
decreasing interaction strength | T-complex protein 1 subunit alpha (Saccharomyces cerevisiae), P12612 L326A
decreasing interaction strength | T-complex protein 1 subunit alpha (Saccharomyces cerevisiae), P12612 R319A
decreasing interaction strength | T-complex protein 1 subunit alpha (Saccharomyces cerevisiae), P12612 V311A
decreasing interaction strength | T-complex protein 1 subunit alpha (Saccharomyces cerevisiae), P12612 L305A
